# Experimental data: patent publication US20180327752A1 (Stanford University, published 2018)
# B1: soluble AAVR (E. coli-expressed recombinant fusion between maltose-binding protein and AAVR PKD domains 1-5) (receptor)
# chain: VSAGESVQITLPKNEVQLNAYVLQEPPKGETYTYDWQLITHPRDYSGEMEGKHSQILKLSKLTPGLYEFKVIVEGQNAHGEGYVNVTVKPEPRKNRPPIAIVSPQFQEISLPTTSTVIDGSQSTDDDKIVQYHWEELKGPLREEKISEDTAILKLSKLVPGNYTFSLTVVDSDGATNSTTANLTVNKAVDYPPVANAGPNQVITLPQNSITLFGNQSTDDHGITSYEWSLSPSSKGKVVEMQGVRTPTLQLSAMQEGDYTYQLTVTDTIGQQATAQVTVIVQPENNKPPQADAGPDKELTLPVDSTTLDGSKSSDDQKIISYLWEKTQGPDGVQLENANSSVATVTGLQVGTYVFTLTVKDERNLQSQSSVNVIVKEEINKPPIAKITGNVVITLPTSTAELDGSKSSDDKGIVSYLWTRDEGSPAAGEVLNHSDHHPILFLSNLVEGTYTFHLKVTDAKGESDTDRTTVEVKPDPR
# notes: Used in the ELISA on AAV2 VLPs and in the neutralization assay; also called rAAVR1-5; MBP-AAVR PKD 1-5
# B2: His-tagged soluble AAVR (His-tagged MBP fusion with AAVR PKD domains 1-5) (receptor)
# chain: VSAGESVQITLPKNEVQLNAYVLQEPPKGETYTYDWQLITHPRDYSGEMEGKHSQILKLSKLTPGLYEFKVIVEGQNAHGEGYVNVTVKPEPRKNRPPIAIVSPQFQEISLPTTSTVIDGSQSTDDDKIVQYHWEELKGPLREEKISEDTAILKLSKLVPGNYTFSLTVVDSDGATNSTTANLTVNKAVDYPPVANAGPNQVITLPQNSITLFGNQSTDDHGITSYEWSLSPSSKGKVVEMQGVRTPTLQLSAMQEGDYTYQLTVTDTIGQQATAQVTVIVQPENNKPPQADAGPDKELTLPVDSTTLDGSKSSDDQKIISYLWEKTQGPDGVQLENANSSVATVTGLQVGTYVFTLTVKDERNLQSQSSVNVIVKEEINKPPIAKITGNVVITLPTSTAELDGSKSSDDKGIVSYLWTRDEGSPAAGEVLNHSDHHPILFLSNLVEGTYTFHLKVTDAKGESDTDRTTVEVKPDPR
# notes: Construct immobilised on the CM5 chip for SPR; also called AAVR (SPR ligand); not shown: His tag
# What was measured:
# c-MET (Homo sapiens) = c-MET (Homo sapiens) (UniProt P08581); test: Flow cytometry surface staining of HAP1 WT cells with the isotype control, SSC against PE
# FGFR1 = test: Flow cytometry surface staining of HAP1 WT cells with the isotype control, SSC against FITC
# [1] = biological target: T1, AAV2 particles (adeno-associated virus serotype 2 capsid) (adeno-associated virus serotype 2, UniProt P03135 1-735); test: cell-based or functional assay
# T1 sequence (P03135 whole entry): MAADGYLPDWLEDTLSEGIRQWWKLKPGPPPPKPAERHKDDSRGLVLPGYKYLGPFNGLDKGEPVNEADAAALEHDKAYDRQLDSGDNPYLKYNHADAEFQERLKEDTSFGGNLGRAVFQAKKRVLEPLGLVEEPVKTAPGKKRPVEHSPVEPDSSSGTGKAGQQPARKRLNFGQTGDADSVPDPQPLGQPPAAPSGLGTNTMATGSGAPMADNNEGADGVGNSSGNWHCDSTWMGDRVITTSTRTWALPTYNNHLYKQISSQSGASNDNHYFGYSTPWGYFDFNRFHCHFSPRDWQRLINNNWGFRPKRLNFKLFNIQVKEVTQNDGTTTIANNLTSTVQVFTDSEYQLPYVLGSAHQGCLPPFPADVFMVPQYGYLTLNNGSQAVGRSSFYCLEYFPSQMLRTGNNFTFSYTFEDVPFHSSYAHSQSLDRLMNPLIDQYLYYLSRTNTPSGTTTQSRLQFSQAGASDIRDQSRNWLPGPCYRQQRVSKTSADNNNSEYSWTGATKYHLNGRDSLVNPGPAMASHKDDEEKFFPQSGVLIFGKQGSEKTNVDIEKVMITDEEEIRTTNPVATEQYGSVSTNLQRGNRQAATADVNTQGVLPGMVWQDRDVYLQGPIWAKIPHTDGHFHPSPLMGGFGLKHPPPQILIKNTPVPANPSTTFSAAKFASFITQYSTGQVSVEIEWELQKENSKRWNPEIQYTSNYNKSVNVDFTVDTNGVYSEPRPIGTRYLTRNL
# [2] = biological target: T1, AAV2 particles (adeno-associated virus …); test: ELISA: plates coated with AAV2 virus-like particles, soluble AAVR (MBP-PKD1-5) detected with anti-MBP-HRP, A450
# [3] = biological target: T1, AAV2 particles (adeno-associated virus …); test: SPR (BIAcore X): His-tagged soluble AAVR immobilised at 4 nM ligand concentration, AAV-2 particles as analyte, Langmuir 1:1 fit
# [4] = biological target: T1, AAV2 particles (adeno-associated virus …); test: SPR (BIAcore X), His-tagged soluble AAVR immobilised on CM5 chip, AAV-2 particles as analyte, Langmuir 1:1 fit
# [5] = biological target: T1, AAV2 particles (adeno-associated virus …); test: SPR (BIAcore X): His-tagged soluble AAVR immobilised at 2 nM ligand concentration, AAV-2 particles as analyte, Langmuir 1:1 fit
molecule,measurement,setting,value
isotype (PE row) (antibody),% of cells in the positive gate,c-MET (Homo sapiens),0.68%
isotype (FITC row) (antibody),% of cells in the positive gate,FGFR1,0.28%
B1,IC50 (read off the curve),[1],~20 nM
same,EC50 (read off the curve),[2],~100 nM
B2,Kd,[3],150 nM
same,koff,[3],0.0029 s⁻¹
same,kon,[3],18000 M⁻¹ s⁻¹
same,Kd,[4],~150 nM
same,Kd,[5],140 nM
same,koff,[5],0.0023 s⁻¹
same,kon,[5],20000 M⁻¹ s⁻¹
